Reference: PMC2953525, “Subtle Alterations in PCNA-Partner Interactions Severely Impair DNA Replication and Repair” (PLoS Biology, 2010)
Where a chain is given by its changes, count along the chain named. One block for each molecule: values may come before it.

Tests used:
[1] = biological target: Ung1 PIP peptide; assay: SPR analysis of PCNA binding to PIP peptide; set-up: species or system yeast; conditions: PCNA immobilized, peptide 5-5,000 nM, ProteOn XPR36; read-out: Binding affinity for Ung1 PIP peptide (SPR)
Source text: To quantify differences in binding affinities of the PCNA mutants relative to the WT, we characterized four PCNA mutants with increased affinity for PIP peptides derived from Rad30, Pol32, Msh6, and Ung1 partners using SPR. These mutants were overexpressed in E. coli, purified by affinity chromatography, and immobilized on an SPR sensor chip for binding characterization. SPR binding analysis enabled direct and sensitive measurement of interaction affinities relative to the Y2H system and indicated an up to 8-fold increase in binding affinity for the different PIP peptides, relative to WT PCNA (Table 1). Such analysis allowed the detection of a significant decrease in the Rad30 PIP peptide dissociation rate in the Pol30-Rad30E9p mutant relative to the WT, indicating a ∼9-fold increase in the lifetime of the PCNA-Rad30 complex (see Table 1). Collectively the ELISA, Y2H, and SPR assays validated and quantified the increase in mutant PCNA binding affinities, relative to WT PCNA.
Protein interaction assays were carried out using the ProteOn XPR36 (Bio-Rad) instrument. WT or PCNA mutants (0.4 to 5.2 fmol) were immobilized on the surface of a GLM sensor chip by a carbodiimide-activated succinimide-coupling method, as specified by the manufacturer. All SPR experiments were performed by flowing 150 µl of the target peptide at a flow rate of 30 µl/min onto the PCNA-bound chip. Different concentrations (5–5,000 nM) of PIP peptides (Table 1) were injected over the PCNA chip, and binding parameters were determined using ProteOn XPR36 software (Bio-Rad). The ligand (PCNA) and analyte (peptide) buffers were PBST and 150 mM NaCl, 1 mM EDTA, 0.01% Tween-80, 30 mM Hepes, pH 7.5, respectively.

[2] = biological target: T1, pol30-Msh6E6 (yeast, UniProt P15873 1-258, IDCL DIDADFLKIEEL to DYDKDLLKIIEL); assay: two-hybrid; pAD-GAL4-PCNA WT or mutant (called bait) and pBD-GAL4-partner (called prey) in strain YRG2; 10-fold serial dilutions spotted on SC-Leu-Trp-His plates, 30°C, 3 d; growth similar to WT PCNA is denoted 1; conditions: partners not purified
T1 construct: PCNA (POL30), yeast; source: yeast two-hybrid fusion (pAD-GAL4, strain YRG2)
T1 sequence: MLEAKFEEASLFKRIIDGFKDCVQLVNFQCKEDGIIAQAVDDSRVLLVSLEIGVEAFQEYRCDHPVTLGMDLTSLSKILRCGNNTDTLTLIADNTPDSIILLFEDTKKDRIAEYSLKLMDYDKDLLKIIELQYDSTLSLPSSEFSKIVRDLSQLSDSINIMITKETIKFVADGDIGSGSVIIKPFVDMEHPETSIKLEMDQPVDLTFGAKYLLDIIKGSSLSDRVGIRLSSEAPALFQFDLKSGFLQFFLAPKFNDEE

[3] = biological target: T2, pol30-Msh6E2 (yeast, UniProt P15873 1-258, IDCL DIDADFLKIEEL to DYDRDMLKISEL); assay: as above; conditions: partners not purified
T2 construct: PCNA (POL30), yeast; source: yeast two-hybrid fusion (pAD-GAL4, strain YRG2)
T2 sequence: T1 sequence with K123R, L125M, I129S

[4] = biological target: T3, pol30-Pol32E9 (yeast, UniProt P15873 1-258, IDCL DIDADFLKIEEL to DNDVDSLKIIEL); assay: as above; conditions: partners not purified
T3 construct: PCNA (POL30), yeast; source: yeast two-hybrid fusion (pAD-GAL4, strain YRG2)
T3 sequence: T1 sequence with Y121N, K123V, L125S

[5] = biological target: T4, pol30-Rad30E2 (yeast, UniProt P15873 1-258, IDCL DIDADFLKIEEL to DDDWDFLKILEL); assay: two-hybrid; quantitative Y2H: generation time of the YRG2 strains in liquid SC-Leu-Trp-His, given relative to cells expressing WT PCNA; average of at least 3 experiments; conditions: partners not purified
T4 construct: PCNA (POL30), yeast; source: yeast two-hybrid fusion (pAD-GAL4, strain YRG2)
T4 sequence: T1 sequence with Y121D, K123W, L125F, I129L

[6] = biological target: T5, pol30-Rad27E6 (yeast, UniProt P15873 1-258, IDCL DIDADFLKIEEL to DGDYDILKIREL); assay: as above; conditions: partners not purified
T5 construct: PCNA (POL30), yeast; source: yeast two-hybrid fusion (pAD-GAL4, strain YRG2)
T5 sequence: T1 sequence with Y121G, K123Y, L125I, I129R

Molecule: POL30: wild-type yeast PCNA (POL30), IDCL sequence DIDADFLKIEEL
Kd [1]: 1200 nM

fold change in affinity relative to WT PCNA (Y2H) [2]: 1.3 fold
fold change in affinity relative to WT PCNA (Y2H) [3]: 1.3 fold
fold change in affinity relative to WT PCNA (Y2H) [4]: 1.2 fold
fold change in affinity relative to WT PCNA (Y2H generation time) [5]: 0.4 fold
fold change in affinity relative to WT PCNA (Y2H generation time) [6]: 1.5 fold
B1: Rad27 (natural protein, yeast, UniProt P26793 1-382, looked up)
chain: MGIKGLNAIISEHVPSAIRKSDIKSFFGRKVAIDASMSLYQFLIAVRQQDGGQLTNEAGETTSHLMGMFYRTLRMIDNGIKPCYVFDGKPPDLKSHELTKRSSRRVETEKKLAEATTELEKMKQERRLVKVSKEHNEEAQKLLGLMGIPYIIAPTEAEAQCAELAKKGKVYAAASEDMDTLCYRTPFLLRHLTFSEAKKEPIHEIDTELVLRGLDLTIEQFVDLCIMLGCDYCESIRGVGPVTALKLIKTHGSIEKIVEFIESGESNNTKWKIPEDWPYKQARMLFLDPEVIDGNEINLKWSPPKEKELIEYLCDDKKFSEERVKSGISRLKKGLKSGIQGRLDGFFQVVPKTKEQLAAAAKRAQENKKLNKNKNKVTKGRR
notes: Rad27 (endonuclease), yeast; also called pBD-Rad27; source: yeast two-hybrid fusion (pBD-GAL4, strain YRG2)
